Here are results for eight compounds from patent US5462743A, “Substance transfer system for topical application” (Medipro Sciences Limited, priority 1993, dated 1995).

The nature of series [1]: In vitro permeation through intact skin, patch of FIGS. 14 and 15 (Example 6). The series is classed as in vitro ADME, Hairless Guinea Pig. As for the experimental part: (§1) The wells were filled with porous plastic.
In addition to the transdermal patches using porous plastic depots as described in Example 5, patches containing fibrous depots were also tested. The fibrous depots, also measured 3 mm in length were cut from an aligned bonded cellulose acetate rod, 3 mm in diameter (R14236 from American Filtrona Co.).

For series [2] the following is noted: in the bloodstream; cited from earlier work.
Series [3] in a line: In vitro skin permeation, patch of FIG. 3 (Example 4). The series is classed as in vitro ADME, Hairless Guinea Pig. The note with it: porous plastic depots. The source says: […] […] Duplicate samples of each test compound were run.
skin compatible adhesive, H-566 coated onto a white polyethylene closed cell foam, 0.8 mm thick (Dermaflex PEF 32-W H-566 from Flexcon Company, Inc.) was used, perforated with an array of 69 cylindrical channels approximately 0.84 mm in diameter;
the channels were not lined; instead they were filled with cylindrical sections of porous plastic material (Hydrophilic HDPE with medium pore size, NO. X-4899, Porex Technologies);
the silicone sealant was absent; a reservoir support layer consisting of 1.6 mm thick sheet of porous plastic material, 2.0 cm in diameter (Hydrophilic HDPE with coarse pore size, NO. X-4916, Porex Technologies) was placed directly above the array of 69 channels;
Some variability in results, as between attempted duplicates, was observed, largely attributable to uncertain intimate contact between the reservoir and the skin contacting matrices.

Series [4] in a line: In vitro skin permeation, patch of FIG. 2 with H566 adhesive (Example 2). Particulars: compromised skin, approximately 1 mg loaded, intimate contact maintained. The text has this:
(§2) The skin penetration of model compounds from a transdermal patch constructed according to FIG. 2 was established in vitro by a permeation study. […] The array measured 1.7×1.7 cm and was centrally located. […] On this outer surface of the adhesive layer, but between the slightly protruding silicone tubing was cast a 30% solution of silicone sealant in hexane. The channels were filled with filaments of open cell polyurethane foam. On top of the dry silicone layer was placed a reservoir support layer consisting of a 1.5 mm thick sheet of the same open-cell polyurethane foam, 2.0 cm in diameter. The outer, barrier layer of the patch was a 3.5 cm diameter section of DERMAFLEX V-300-F FLESH (vinyl coated with a medical grade acrylic adhesive, FLEXCON Company). The reservoir and channels of the patch were loaded with a solution which contained a fluorescently labelled model compound (polypeptides or polysaccharide). […] The sections of modified skin (stratum corneum removed) were excised from the Hairless Guinea Pig and mounted on the diffusion cell above a solution of isotonic saline such that the dermal side of skin was in contact with the magnetically stirred receptor liquid. The device was brought into intimate contact with the epidermal surface of the skin. The effective contact area of the solution with the skin through the channels was 0.21 cm^2. […]

Series [5] in a line: In vitro skin permeation, patch of FIG. 2 (Example 1). Particulars: compromised skin, 37° C, contact area 0.21 cm^2, about 1 mg loaded, less than ideal intimate contact.
Description: as §2

For series [6] the following is noted: in vivo; cited from earlier work.
The nature of series [7]: In vitro skin permeation, patch of FIGS. 14 and 15, dried drug matrix (Example 7). The series is classed as in vitro ADME, Hairless Guinea Pig. The note with it: freeze dried depots, porous plastic matrix.
Description: as §1
The drug depots were hydrated with a suitable solubilizing solution just before the start of the permeation study, as illustrated in FIG. 6.

Series [8] can be described thus: In vitro skin permeation, patch of FIGS. 14 and 15, liquid reservoir (Example 5). In kind it is in vitro ADME, Hairless Guinea Pig. Particulars: porous plastic depots, contact area 1.1 cm^2.
The subject of a further series is cancerous body cells. Particulars: subsequently converted into protoporphyrin IX; cited from earlier work.

Values joined by “and” are separate entries in the source; they are usually repeats but may differ in a detail not shown here. Equal values may be shown once.

With `C[C@]12CC[C@@H]3c4ccc(O)cc4CC[C@H]3[C@@H]1CC[C@@H]2O` [Estradiol, estradiol], the “Amount Permeated (Cumulative)” value in [1] (fibrous matrix, 8 hrs) was 0.19 Micrograms and 0.34 Micrograms; in series [1] (fibrous matrix, 24 hrs), 1.74 Micrograms and 2.93 Micrograms; in [1] (fibrous matrix, 48 hrs) it was 2.99 Micrograms and 4.83 Micrograms; in series [1] (porous plastic matrix, 8 hrs), 1.01 Micrograms and 1.03 Micrograms; in [1] (porous plastic matrix, 24 hrs), 6.14 Micrograms and 6.87 Micrograms; in series [1] (porous plastic matrix, 48 hrs), 9.90 Micrograms and 10.69 Micrograms.
Take “parathyroid hormone: polypeptide drug, parathyroid hormone (9,500 daltons)”: the half-life entry in series [2] is on record as “less than 15 minutes”.
For Insulin, the “Amount Permeated in 20 Hrs.” value was 41.96 Micrograms and 22.78 Micrograms in [3]; 10.85 Micrograms and 8.30 Micrograms in [4]; 0.04 Micrograms and 0.05 Micrograms in [5].
Take Hyaluronic acid [HA]: the “accumulation in HA-depleted areas” value in series [6] is on record as “preferentially accumulates in these depleted areas”.
On to Casein, for which the “Amount Permeated in 20 Hrs.” value was 75.98 Micrograms and 104.98 Micrograms in series [3]; 0.05 Micrograms and 0.03 Micrograms in [5].
Take “human growth hormone: polypeptide drug, human growth hormone (22,000 daltons)”: in series [2], the half-life result is given as “less than 25 minutes”.
Turning to “Cytochrome C: carbon-14 labelled model compound, polypeptide, 12,300, from horse heart”, the “Amount Permeated (Cumulative)” value was 40.4 Micrograms in [7] (4 hrs); 124.2 Micrograms and 119.9 Micrograms in series [7] (8 hrs); 412.6 Micrograms and 363.1 Micrograms in series [7] (24 hrs); 642.7 Micrograms and 560.6 Micrograms in series [7] (48 hrs). Moreover, the “Amount Permeated (Cumulated)” value in series [8] (4 hrs) is 117.8 micrograms and 103.4 micrograms; in series [8] (8 hrs) it was 257.5 micrograms and 239.8 micrograms; in series [8] (24 hrs), 581.6 micrograms and 572.6 micrograms; in [8] (48 hrs), 740.0 micrograms and 728.3 micrograms.
Regarding `NCC(=O)CCC(=O)O` [5-aminolevulinic acid], the “absorption by cancerous body cells” value in the series on cancerous body cells is “preferentially absorbed by cancerous body cells”.
